Source: article PMC6433694

Legend:
[1] = cycloheximide chase, western blot, Huh7; settings: glycan lost; control: wild-type eIF4E
[2] = Flag IP, anti-ubiquitin blot, MG132-treated Huh7; settings: glycan lost; control: wild-type eIF4E
[3] = western blot of exogenous eIF4E, Huh7; settings: glycan lost; control: wild-type eIF4E
[4] = western blot of eIF4E, Huh7 and PLC/PRF/5; settings: glycan lost; control: control shRNA

Substance | degradation_or_half_life [1] | other: ubiquitination [2] | expression_or_secretion [3] | expression_or_secretion [4]
eukaryotic initiation factor 4E (eIF4E): T168A | decreases | increases | decreases | 
eukaryotic initiation factor 4E (eIF4E): T177A | decreases | increases | decreases | 
eukaryotic initiation factor 4E (eIF4E): T168,177A | decreases | increases | decreases | 
eukaryotic initiation factor 4E (eIF4E): OGT shRNA1 / OGT shRNA2 |  |  |  | decreases
